Experimental findings from patent publication US20250002543A1 are described below.

To fix the notation:
B1: FpL_C3KX 3a (designed binder)
chain: ETPEEPAEEVTIRVNLIFADGQIQTAEFIGTFEEATARAYAYANLLAREYGGYTADLEDGGYTINIRFAGHHHHHH
B2: FpL_C3KX 4h (designed binder)
chain: B1 chain with E49D
B3: FpL_C4KR (designed binder)
chain: ETPEEPREEVTIRVNLIFADGRTQTAEFRGTFEEATAEAYRYADLLARVNGEYTADLEDGGYTINIRFAGHHHHHH
B4: FpL_C3KX 7e (designed binder)
chain: B1 chain with E4G, P6S, Q22R, R38E, E49D, G52E, Y53F, A69V
B5: FpL_C3KX 9c (designed binder)
chain: ETPGESAEEVTIRVNLIFADGRRQTAEFIGTFEEATAEAYAYANLLARDYGEFTADLEDGGYTLNIRFVGHHHHHH
B6: FpL_C3KX 9e (designed binder)
chain: B5 chain with R23I, N44H
B7: FpL_C3KX 10a (designed binder)
chain: B5 chain with N44R, R48H
B8: FpL_C3KX 10b (designed binder)
chain: B5 chain with N44H, R48H
B9: FpL_C3KX 9d (designed binder)
chain: B5 chain with R23I, N44R
B10: FpL_C3 5c (designed binder)
chain: ETPEEPKEEVTIKVNLIFADGKIQTAEFKGTFEEATAKAYAYAGLLAKVYGVYTADLEDGGYTINIKFAGHHHHHH
B11: FpL_C3 5d (designed binder)
chain: B10 chain with Y50S
B12: FpL_C3 2a (designed binder)
chain: B10 chain with G44N, V49E, V52G, Y62N
B13: FpL_C3 4f (designed binder)
chain: B10 chain with G44D, V49E
B14: FpL_C3KX 7e amino acid substitution mutant Glu34Asp (designed binder)
chain: B5 chain with R23I, E34D, L64I
B15: FpL_C3KX 7e amino acid substitution mutant Asn15Val (designed binder)
chain: B5 chain with N15V, R23I, L64I
B16: FpL_C3KX 7e amino acid substitution mutant Glu34Leu (designed binder)
chain: B5 chain with R23I, E34L, L64I
B17: FpL_C3KX 7e amino acid substitution mutant Glu34Val (designed binder)
chain: B5 chain with R23I, E34V, L64I
B18: FpL_C3KX 7e amino acid substitution mutant Glu34Phe (designed binder)
chain: B5 chain with R23I, E34F, L64I

Substitutions are numbered along the chain they refer to.

The first test deals with human CTLA4 antibody containing human κ light chain subgroup 3 (Vκ3) (manufactured by R&D Systems). Kind of test: ELISA; antibody immobilised (10 ug/mL), binding protein at 50 ug/mL, Anti-6-His detection, blank-subtracted.
As to B1, the Polyclonal antibody-binding activity (abs@450 nm) is 0.21 abs@450 nm. The same measure, in the same setting: under B2 stands 0.63 abs@450 nm. For the molecule B3, the Polyclonal antibody-binding activity (abs@450 nm) stood at 0.66 abs@450 nm.

The target of a further test is human PCSK9 antibody containing human κ light chain subgroup 4 (Vκ4) (manufactured by R&D Systems). The description is as above.
Consider B1, for which the Polyclonal antibody-binding activity (abs@450 nm) worked out at 0.76 abs@450 nm. On the same count and under the same terms, the value for B2 was 0.62 abs@450 nm. The molecule B3 displayed a Polyclonal antibody-binding activity (abs@450 nm) of 0.55 abs@450 nm.

The target in the next test is Herceptin containing human κ light chain subgroup 1 (Vκ1) (manufactured by Chugai Pharmaceutical Co., Ltd.). The test is described as above.
For B1, the Polyclonal antibody-binding activity (abs@450 nm) is 0.87 abs@450 nm.

Molecule B2 returned a Polyclonal antibody-binding activity (abs@450 nm) of 0.69 abs@450 nm. The same measure, in the same setting: the value for B3 was 0.65 abs@450 nm.

The target in a further test is human PDGF R alpha antibody containing human κ light chain subgroup 3 (Vκ3) (manufactured by R&D Systems). The description is as above.
In turn, B1 registered a Polyclonal antibody-binding activity (abs@450 nm) of 0.12 abs@450 nm.

Molecule B2 had a Polyclonal antibody-binding activity (abs@450 nm) of 0.56 abs@450 nm.

As to B3, the Polyclonal antibody-binding activity (abs@450 nm) turned out to be 0.59 abs@450 nm.

For a further test, the target named is human antibody (gamma globulin preparation, manufactured by The Chemo-Sero-Therapeutic Research Institute) (human). Nature of the test: ELISA; human gamma globulin immobilised; acid treatment 50 mM buffer pH 3.2, 25 C, 5 min; elution rate = 1 - remaining binding activity. A general note: An ELISA detects its analyte on a solid surface through an enzyme-linked reagent.
Regarding B4, the Elution rate [%] came to 46%. Same read-out and setting: the value for B5 was 69%; that for B6 was 68%; that for B7 was 75%. On the same count and under the same terms, the value for B8 was 67%. Consider B9, for which the Elution rate [%] turned out to be 63%.

Another test has the same target. Kind of test: ELISA; human gamma globulin immobilised, alkali-untreated protein extract, Anti-6-His detection.
Turning to B10, the Antibody-binding activity (absorbance) (absorbance (450 nm)) came out at 0.74. On the same count and under the same terms, under B11 stands 0.46; under B12, 0.72.

In turn, B13 showed an Antibody-binding activity (absorbance) (absorbance (450 nm)) of 0.9.

The next test has as its target immunoglobulin immobilized on IgG Sepharose 6 Fast Flow (manufactured by Cytiva). Nature of the test: IgG Sepharose 6 Fast Flow column; linear gradient 0.1 M citrate pH 6.5 to pH 2.2; pH at the peak of the eluted binding protein.
B3 displayed an Elution pH of 2.8 pH.

A further test addresses human antibody (gamma globulin preparation, manufactured by The Chemo-Sero-Therapeutic Research Institute) (human). Kind of test: ELISA; human gamma globulin immobilised; acid treatment 50 mM buffer pH 3.2, 25 C, 5 min; elution rate = 1 - remaining binding activity. This is another data set of the same source.
B4 showed an Elution rate [%] of 26%. Still for that read-out and setting: under B14 stands 46%. The same measure, in the same setting: under B15 stands 29%. The same measure, in the same setting: under B16 stands 51%; under B17, 29%.

In turn, B18 returned an Elution rate [%] of 64%.
